T1: GP73-hFc (human GP73 amino acids 63 to 400 fused at the C-terminus to human IgG1 Fc) (human)
T1 construct: Expressed in HEK293F, CHO or HepG2 cells; the host is named under assay; also called HEK expressed GP73-hFc; CHO expressed GP73-hFc
T1 chain: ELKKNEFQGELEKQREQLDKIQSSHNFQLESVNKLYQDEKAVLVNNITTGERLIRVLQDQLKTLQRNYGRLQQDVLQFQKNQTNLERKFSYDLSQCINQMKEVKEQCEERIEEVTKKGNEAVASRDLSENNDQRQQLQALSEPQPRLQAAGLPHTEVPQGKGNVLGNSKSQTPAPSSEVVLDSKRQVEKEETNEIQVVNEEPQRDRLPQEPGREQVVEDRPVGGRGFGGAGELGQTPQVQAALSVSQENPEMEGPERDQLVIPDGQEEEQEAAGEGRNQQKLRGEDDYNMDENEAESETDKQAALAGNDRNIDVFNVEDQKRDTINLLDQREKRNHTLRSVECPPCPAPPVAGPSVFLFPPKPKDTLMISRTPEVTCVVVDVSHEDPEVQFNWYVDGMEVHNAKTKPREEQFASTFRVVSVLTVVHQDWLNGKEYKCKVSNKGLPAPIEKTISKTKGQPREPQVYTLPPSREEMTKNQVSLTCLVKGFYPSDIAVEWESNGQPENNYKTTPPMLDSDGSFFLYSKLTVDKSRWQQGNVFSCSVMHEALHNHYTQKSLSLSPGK

T2: E. coli expressed human GP73 (amino acids 63 to 400) with C-terminal 6xHis tag (human, UniProt Q8NBJ4 64-401)
T2 construct: No human Fc, not glycosylated; also called GP73 produced in E. coli; E. coli GP73
T2 sequence: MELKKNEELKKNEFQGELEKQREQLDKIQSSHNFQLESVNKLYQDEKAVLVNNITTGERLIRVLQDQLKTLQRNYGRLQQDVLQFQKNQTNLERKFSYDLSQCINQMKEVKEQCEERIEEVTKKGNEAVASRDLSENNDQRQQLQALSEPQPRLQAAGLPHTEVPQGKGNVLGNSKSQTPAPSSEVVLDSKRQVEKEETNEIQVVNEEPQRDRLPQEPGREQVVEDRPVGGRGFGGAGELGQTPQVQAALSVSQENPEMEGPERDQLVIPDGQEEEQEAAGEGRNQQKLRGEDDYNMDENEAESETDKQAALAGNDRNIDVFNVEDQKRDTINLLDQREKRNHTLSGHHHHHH


Tests used:
[1] = biological target: T1, GP73-hFc (human GP73 amino acids 63 to …); test: SPR Biacore 2000, mAb captured on rabbit anti-mouse IgG, HEK GP73-hFc analyte 0.412-100 nM, 1:1 fit
Procedure: (§1) First, an approximately 13,000-15,000 RU rabbit anti-mouse IgG Capture Biosensor was created by amine-coupling rabbit anti-mouse IgG antibody (GE Healthcare) to a CM5 biosensor chip (GE Healthcare) via EDC/NHS/ethanolamine chemistry provided in an Amine Coupling Kit (GE Healthcare) after pre-treating the biosensor with duplicate injections of 100 mM HCl, 50 mM NaOH, and 0.1% SDS. Purified GP73 antibody and antigen (HEK GP73-hFc) were diluted into a running buffer (hereinafter “running buffer”) composed of HBS-EP buffer (GE Healthcare) supplemented with 0.1% BSA and 0.1% CM-Dextran. Each GP73 antibody was diluted to 1 μg/mL. The GP73-hFc antigen was diluted to concentrations of 0.412 to 100 nM using a 3-fold dilution series assuming an oligomeric molecular weight of 490 kDa (Abbott Laboratories).
The GP73-hFc antigen program was as follows. After equilibrating the rabbit anti-mouse IgG Capture Biosensor for 3 min at 5 μL/minute with running buffer, GP73 antibody (7-14 μL) was injected over individual flow cells with one flow cell being left blank as a reference flow cell. The flow cells were washed with running buffer for 3 min at a flow rate of 60 μL/min. 150 μL of HEK293 expressed GP73-hFc antigen at a random concentration was injected across the biosensor. The biosensor was subsequently re-equilibrated with running buffer for 5 min at a flow rate of 60 μL/minute. All biosensor surfaces were regenerated with one 30 μL injection of 10 mM glycine, pH 1.7 (GE Healthcare), at a flow rate of 10 μL/minute. All concentrations of HEK293 expressed antigen were tested in duplicate. The binding kinetics (association and dissociation) were monitored via sensorgrams during antigen injection and running buffer re-equilibration. The sensorgrams were double-referenced and fit to a 1:1 binding model using Scrubber 2.0 software (BioLogic Software Pty Ltd., Australia) to determine association and dissociation rates, as well as overall KD. Standard errors of determined values are reported in parentheses with respect to the smallest number place value.

[2] = biological target: T2, E. coli expressed human GP73 (amino …); test: Binds E. coli GP73 (summary table; EIA on coated E. coli GP73)
Procedure: The purified anti-GP73 mAbs were tested for EIA reactivity to human IgG, GP73 produced in E. coli, and GP73-hFc produced in HEK 293 cells. A mouse-human chimeric antibody, GP73 produced in E. coli, and GP73-hFc produced in HEK 293 cells were coated on micro titer plates at approximately 1000 ng/mL and allowed to incubate over night at 4-8° C. After the capture reagent was coated on the solid phase, it was removed and blocked using a BSA/PBS block solution. The wells were washed with distilled water. Purified anti-GP73 and negative control mAbs were added to the blocked plates in serial dilutions starting at 1000 ng/mL and allowed to incubate at room temperature for approximately 30 min. The wells were washed with distilled water. Goat anti-mouse IgG-HRP (Jackson Immunoresearch) was added to the wells at approximately 250 ng/mL and allowed to incubate for approximately 30 min at room temperature. The plates were washed with distilled water and OPD substrate was used as the chromagen to generate signal. Plates were read at 492 nm and the results were analyzed.

[3] = biological target: T1, GP73-hFc (human GP73 amino acids 63 to …); test: SPR Biacore 2000, mAb captured on rabbit anti-mouse IgG, HEK GP73-hFc analyte 0.412-100 nM, 1:1 fit; standard error 2 × 10^-5, larger than the value; dissociation hardly resolved
Procedure: as §1
The GP73-hFc antigen program was as follows. After equilibrating the rabbit anti-mouse IgG Capture Biosensor for 3 min at 5 μL/minute with running buffer, GP73 antibody (7-14 μL) was injected over individual flow cells with one flow cell being left blank as a reference flow cell. […] The binding kinetics (association and dissociation) were monitored via sensorgrams during antigen injection and running buffer re-equilibration. […] Standard errors of determined values are reported in parentheses with respect to the smallest number place value.

Kd [1] [pM]	koff [1] [s⁻¹]	kon [1] [M⁻¹ s⁻¹]	binding result [2]	koff [3] [s⁻¹]	Binder
120	0.00025	2.06e+06	–	–	anti-GP73 monoclonal antibody 1B-4863 (antibody, V domains shown, Biotin labelled in some assays; also called mAb 1B-4863; 1B-4863-Bt) VH: QVQLKESGPGLVAPSQSLSITCTVSGFSLTSYGVHWVRQSPGKGLEWLGVIWTGGSTNYNSALMSRLSISKDNSESQVFLKVNSLQTDDTGMYYCARDPGTDYFDYWGQGTTLTVSS VL: DIVMTQSHKFMSTSIGDRVSISCKASQDVSIDVSWYQQKPGQSPTLLIYSASYRYIGVPDRFTGSGSGTAFTFTISSVQAEDLAIYYCQQHFTTPLTFGAGTKLELKR
≤ 2	–	3.9e+06	binds	≤ 1e-05	anti-GP73 monoclonal antibody 1B-4971 (antibody, V domains shown, Biotin labelled in some assays; also called mAb 1B-4971; 1B-4971-Bt) VH: QVQLQQSGPALVKPGASVKMSCKASGYTFTNYVIHWVKQKPGQGLERIGYIWPYNDGTKFNEKFKGKATLTSDKSSSTAYMELSSLTSEDSAVYYCSSQQLAYWGQGTTLTVSS VL: not shown
91	0.00018	1.98e+06	binds	–	anti-GP73 monoclonal antibody 1B-3440 (antibody, V domains shown, Biotin labelled in some assays; also called mAb 1B-3440; 1B-3440-Bt) VH: EVQLVETGGGLVQPKGSLKLSCAASGFTFNTNAMNWVRQAPGKGLEWVARIRTKRYNYTTFYADSVKDRFTISRDDSQSMLFLQMNNLKTEDTAMYYCVTGGTGTFDYWGQGTTLTVSS VL: EIVLTQSPTTMPASPGEKVTFTCSASSGISSNYLHWYQLKPGFSPKLLIYRTSNLASGVPARFSGGGSGTSYSLTIGTMEAEDVATYYCQQGFSIPLTFGAGTKLELKR
